Measurements published in US20180207269A1.

Columns and labels:
[1] = target: CD166 (activated leukocyte cell adhesion molecule, ALCAM) on human cells (human) (UniProt Q13740); experiment: flow cytometry, Jurkat cells pre-incubated with J4-81, then ILT3Fc-FITC
[2] = target: CD166 (activated leukocyte cell adhesion molecule, ALCAM) on human cells (human) (UniProt Q13740); experiment: flow cytometry, CD166 KO H9 cells (CD166 gene knocked out: control cells without the target), double staining anti-CD166-PE + ILT3.Fc-FITC
[3] = target: CD166 (activated leukocyte cell adhesion molecule, ALCAM) on human cells (human) (UniProt Q13740); experiment: flow cytometry, CD3+ T cells triggered with PWM (0.05ug/ml) w/o ILT3Fc, stained with ILT3Fc-FITC
[4] = target: CD166 (activated leukocyte cell adhesion molecule, ALCAM) on human cells (human) (UniProt Q13740); experiment: flow cytometry, CD3+ T cells, Control Treatment, cultured with ILT3Fc (50 ug/mL), stained with ILT3Fc-FITC
[5] = target: CD166 (activated leukocyte cell adhesion molecule, ALCAM) on human cells (human) (UniProt Q13740); experiment: flow cytometry, CD3+ T cells triggered with CD3/CD28 (5ug/ml, 1ug/ml) w/o ILT3Fc, stained with ILT3Fc-FITC
[6] = target: CD166 (activated leukocyte cell adhesion molecule, ALCAM) on human cells (human) (UniProt Q13740); experiment: flow cytometry, ILT3Fc-FITC on H9 cells with CD166 knocked down by shRNA adeno-virus
[7] = target: CD166 (activated leukocyte cell adhesion molecule, ALCAM) on human cells (human) (UniProt Q13740); experiment: flow cytometry, H9 cells infected with control adeno-virus (Adeno-Control) for 7 days, double staining anti-CD166 PE + ILT3Fc-FITC
[8] = target: CD166 (activated leukocyte cell adhesion molecule, ALCAM) on human cells (human) (UniProt Q13740); experiment: flow cytometry, CD3+ T cells triggered with CD3/CD28 (5ug/ml, 1ug/ml) in the presence of ILT3Fc (50 ug/mL), stained with ILT3Fc-FITC
[9] = target: CD166 (activated leukocyte cell adhesion molecule, ALCAM) on human cells (human) (UniProt Q13740); experiment: flow cytometry, CD3-gated T cells of a healthy donor (low or no ILT3L)
[10] = target: CD166 (activated leukocyte cell adhesion molecule, ALCAM) on human cells (human) (UniProt Q13740); experiment: flow cytometry, Jurkat cells nucleofected with CD166 over-expression plasmid, double staining anti-CD166 APC + ILT3Fc-FITC
[11] = target: CD166 (activated leukocyte cell adhesion molecule, ALCAM) on human cells (human) (UniProt Q13740); experiment: flow cytometry, ILT3Fc-FITC on control-virus infected H9 cells
[12] = target: CD166 (activated leukocyte cell adhesion molecule, ALCAM) on human cells (human) (UniProt Q13740); experiment: flow cytometry, H9 cells with CD166 knocked down by CD166 shRNA adeno-virus (Adeno-siCD166) for 7 days, double staining anti-CD166 PE + ILT3Fc-FITC
[13] = target: CD166 (activated leukocyte cell adhesion molecule, ALCAM) on human cells (human) (UniProt Q13740); experiment: flow cytometry, Jurkat cells nucleofected with control vector, double staining anti-CD166 APC + ILT3Fc-FITC
[14] = target: CD166 (activated leukocyte cell adhesion molecule, ALCAM) on human cells (human) (UniProt Q13740); experiment: cell-based or functional assay
[15] = target: CD166 (activated leukocyte cell adhesion molecule, ALCAM) on human cells (human) (UniProt Q13740); experiment: flow cytometry, Wild-Type H9 cells, double staining anti-CD166-PE + ILT3.Fc-FITC
[16] = target: CD166 (activated leukocyte cell adhesion molecule, ALCAM) on human cells (human) (UniProt Q13740); experiment: flow cytometry, CD3+ T cells triggered with PWM (0.05ug/ml) in the presence of ILT3Fc (50 ug/mL), stained with ILT3Fc-FITC
[17] = target: CD166 (activated leukocyte cell adhesion molecule, ALCAM) on human cells (human) (UniProt Q13740); experiment: flow cytometry, CD3+ T cells, Control Treatment, cultured w/o ILT3Fc, stained with ILT3Fc-FITC
[18] = target: CD166 (activated leukocyte cell adhesion molecule, ALCAM) on human cells (human) (UniProt Q13740); experiment: flow cytometry, CD4-gated T helper cells of a healthy donor (low or no ILT3L)
[19] = target: CD166 (activated leukocyte cell adhesion molecule, ALCAM) on human cells (human) (UniProt Q13740); experiment: flow cytometry, Jurkat cells pre-incubated with CD6-Fc, then ILT3Fc-FITC
[20] = target: CD166 (activated leukocyte cell adhesion molecule, ALCAM) on human cells (human) (UniProt Q13740); experiment: flow cytometry, Jurkat cells pre-incubated with CD166-Fc, then ILT3Fc-FITC

Molecule: anti-CD166 mAb J4-81 (antibody)
- percent inhibition of ILT3Fc-FITC binding [1]: 28%

Molecule: ILT3Fc (water-soluble recombinant protein: extracellular domain of human ILT3 affixed to the Fc portion of an immunoglobulin) (from UniProt Q8NHJ6 22-259; P01857 104-330) (Fc fusion)
- % cells in lower left quadrant (CD166- / ILT3Fc-FITC-) [2]: 96.5%
- % cells in lower right quadrant (CD166- / ILT3Fc-FITC+) [2]: 2.94%
- % cells in upper left quadrant (CD166+ / ILT3Fc-FITC-) [2]: 0.1%
- % cells in upper right quadrant (CD166+ / ILT3Fc-FITC+) [2]: 0.43%
- % cells stained with ILT3Fc-FITC [3]: 23.2%
- % cells stained with ILT3Fc-FITC [4]: 0.8%
- % cells stained with ILT3Fc-FITC [5]: 26.9%
- percent of cells binding ILT3Fc [6]: < 20%
- % cells in lower left quadrant (CD166- / ILT3Fc-FITC-) [7]: 6.33%
- % cells in lower right quadrant (CD166- / ILT3Fc-FITC+) [7]: 0.15%
- % cells in upper left quadrant (CD166+ / ILT3Fc-FITC-) [7]: 47%
- % cells in upper right quadrant (CD166+ / ILT3Fc-FITC+) [7]: 46.5%
- % cells stained with ILT3Fc-FITC [8]: 20.4%
- percent ILT3Fc binding [9]: 12%
- % cells in lower left quadrant (CD166- / ILT3Fc-FITC-) [10]: 13.4%
- % cells in lower right quadrant (CD166- / ILT3Fc-FITC+) [10]: 1.08%
- % cells in upper left quadrant (CD166+ / ILT3Fc-FITC-) [10]: 66.3%
- % cells in upper right quadrant (CD166+ / ILT3Fc-FITC+) [10]: 19.2%
- percent of cells binding ILT3Fc [11]: 46%
- % cells in lower left quadrant (CD166- / ILT3Fc-FITC-) [12]: 50%
- % cells in lower right quadrant (CD166- / ILT3Fc-FITC+) [12]: 5.8%
- % cells in upper left quadrant (CD166+ / ILT3Fc-FITC-) [12]: 26.7%
- % cells in upper right quadrant (CD166+ / ILT3Fc-FITC+) [12]: 14.5%
- % cells in lower left quadrant (CD166- / ILT3Fc-FITC-) [13]: 30.6%
- % cells in lower right quadrant (CD166- / ILT3Fc-FITC+) [13]: 1.08%
- % cells in upper left quadrant (CD166+ / ILT3Fc-FITC-) [13]: 58%
- % cells in upper right quadrant (CD166+ / ILT3Fc-FITC+) [13]: 10.2%
- inhibition of growth of tumor cell lines at 72 hours [14]: 50 to 90%
- % cells in lower left quadrant (CD166- / ILT3Fc-FITC-) [15]: 3.57%
- % cells in lower right quadrant (CD166- / ILT3Fc-FITC+) [15]: 0.03%
- % cells in upper left quadrant (CD166+ / ILT3Fc-FITC-) [15]: 22.3%
- % cells in upper right quadrant (CD166+ / ILT3Fc-FITC+) [15]: 74.1%
- % cells stained with ILT3Fc-FITC [16]: 15.2%
- % cells stained with ILT3Fc-FITC [17]: 1.08%
- percent ILT3Fc binding [18]: 1%

B1: human CD6-Fc (Fc fusion, UniProt P30203 25-398, looked up, not shown: a dimerising Fc or GST)
chain: DQLNTSSAESELWEPGERLPVRLTNGSSSCSGTVEVRLEASWEPACGALWDSRAAEAVCRALGCGGAEAASQLAPPTPELPPPPAAGNTSVAANATLAGAPALLCSGAEWRLCEVVEHACRSDGRRARVTCAENRALRLVDGGGACAGRVEMLEHGEWGSVCDDTWDLEDAHVVCRQLGCGWAVQALPGLHFTPGRGPIHRDQVNCSGAEAYLWDCPGLPGQHYCGHKEDAGAVCSEHQSWRLTGGADRCEGQVEVHFRGVWNTVCDSEWYPSEAKVLCQSLGCGTAVERPKGLPHSLSGRMYYSCNGEELTLSNCSWRFNNSNLCSQSLAARVLCSASRSLHNLSTPEVPASVQTVTIESSVTVKIENKESRE
- percent inhibition of ILT3Fc-FITC binding [19]: 49%

B2: human CD166Fc (Fc fusion, UniProt Q13740 28-526, looked up, not shown: a dimerising Fc or GST)
chain: WYTVNSAYGDTIIIPCRLDVPQNLMFGKWKYEKPDGSPVFIAFRSSTKKSVQYDDVPEYKDRLNLSENYTLSISNARISDEKRFVCMLVTEDNVFEAPTIVKVFKQPSKPEIVSKALFLETEQLKKLGDCISEDSYPDGNITWYRNGKVLHPLEGAVVIIFKKEMDPVTQLYTMTSTLEYKTTKADIQMPFTCSVTYYGPSGQKTIHSEQAVFDIYYPTEQVTIQVLPPKNAIKEGDNITLKCLGNGNPPPEEFLFYLPGQPEGIRSSNTYTLTDVRRNATGDYKCSLIDKKSMIASTAITVHYLDLSLNPSGEVTRQIGDALPVSCTISASRNATVVWMKDNIRLRSSPSFSSLHYQDAGNYVCETALQEVEGLKKRESLTLIVEGKPQIKMTKKTDPSGLSKTIICHVEGFPKPAIQWTITGSGSVINQTEESPYINGRYYSKIIISPEENVTLTCTAENQLERTVNSLNVSAISIPEHDEADEISDENREKVNDQA
- percent inhibition of ILT3Fc-FITC binding [20]: 30%
